Columns and labels:
[1] = target: T1, human TIM-3 extracellular domain-human IgG1 Fc fusion protein (human, UniProt Q8TDQ0 22-199); experiment: ELISA; pH 6.0, 37°C 7 days
T1 construct: Made in house or bought (ACROBiosystems TM3-H5258); also called TIM-3-hFc; not shown: human IgG1 Fc

[2] = target: T2, human PD-1 extracellular domain protein expressed in Example 1 (tag not stated) (human, UniProt Q15116 25-170); experiment: ELISA; pH 6.0, 37°C 7 days
T2 construct: extracellular domain; also called PD-1 protein; not shown: human IgG1 Fc or his tag

[3] = target: T1, human TIM-3 extracellular domain-human …; experiment: ELISA; PBS, 37°C 7 days
[4] = target: T2, human PD-1 extracellular domain protein …; experiment: ELISA; PBS, 37°C 7 days
[5] = target: T1, human TIM-3 extracellular domain-human …; experiment: ELISA; pH 5.5, 37°C 10 days
[6] = target: T2, human PD-1 extracellular domain protein …; experiment: ELISA; pH 5.5, 37°C 10 days
[7] = target: T1, human TIM-3 extracellular domain-human …; experiment: ELISA; pH 5.5, 37°C 7 days, against 0 day
[8] = target: T2, human PD-1 extracellular domain protein …; experiment: ELISA; pH 5.5, 37°C 7 days, against 0 day
[9] = target: T1, human TIM-3 extracellular domain-human …; experiment: ELISA; pH 5.5, 37°C 5 days, against 0 day
[10] = target: T2, human PD-1 extracellular domain protein …; experiment: ELISA; pH 5.5, 37°C 5 days, against 0 day
[11] = target: T1, human TIM-3 extracellular domain-human …; experiment: ELISA; PBS, 37°C 14 days, against 0 day
[12] = target: T2, human PD-1 extracellular domain protein …; experiment: ELISA; PBS, 37°C 14 days, against 0 day
[13] = target: T1, human TIM-3 extracellular domain-human …; experiment: ELISA; PBS, 37°C 14 days (degraded sample)
[14] = target: T2, human PD-1 extracellular domain protein …; experiment: ELISA; PBS, 37°C 14 days (degraded sample)
[15] = target: T1, human TIM-3 extracellular domain-human …; experiment: ELISA; 40°C 0 day, against 0 day
[16] = target: T2, human PD-1 extracellular domain protein …; experiment: ELISA; 40°C 0 day, against 0 day
[17] = target: T2, human PD-1 extracellular domain protein …; experiment: ELISA, PD-1 coated
Method: PD-1 expressed in Example 1 was diluted to a concentration of 1 μg/ml with PBS buffer, pH 7.4, and added to a 96-well microplate (Corning, CLS3590-100EA) at 50 μl per well, thereby incubating in an incubator at 37° C. for 2 hours. After discarding the liquid, a blocking solution of 5% skimmed milk (Shanghai Shenggong Biological Engineering Co., Ltd., A600669-0250) diluted with PBS was added at 200 μl per well, followed by incubating at 37° C. for 3 hours or 4° C. overnight (16-18 hours)) for blocking. Subsequently, the blocking solution was discarded, and the microplate was washed 5 times with PBST buffer (pH 7.4 PBS containing 0.05% tween-20). […] Subsequently, the microplate was washed 5 times with PBST, then 50 μl/well of 1:2500 diluted HRP-labeled secondary antibody (Jackson Immuno Research, 115-035-003) was added, thereby incubating at 37° C. for 1 hour. After washing the microplate 5 times with PBST, 50 μl/well TMB chromogenic substrate (KPL, 52-00-03) was added, then incubated at room temperature for 5-10 min. Finally, 50 μl/well of 1M H₂SO₄ was added to stop the reaction. […] Go microplate reader (ThermoFisher, 51119200) was used to read the absorption value at 450 nm and the EC50 based on the OD value was calculated.
The above-mentioned TIM-3 and PD-1 bispecific antibodies of the present invention were optimized and designed using the methods of Example 2 and Example 5, and their affinity for TIM-3 and PD-1 were tested respectively.

EC50 [1]: 0.136 nM
EC50 [2]: 0.116 nM
EC50 [3]: 0.325 nM
EC50 [4]: 0.339 nM
EC50 [5]: 0.307 nM
EC50 [6]: 0.199 nM
Fold change of EC50 [7]: 1.06 ratio
Fold change of EC50 [8]: 0.89 ratio
Fold change of EC50 [9]: 0.93 ratio
Fold change of EC50 [10]: 1.2 ratio
Fold change of EC50 [11]: 2.71 ratio
Fold change of EC50 [12]: 1.37 ratio
EC50 [13]: 0.685 nM
EC50 [14]: 0.4 nM
Fold change of EC50 [15]: 1 ratio
Fold change of EC50 [16]: 1 ratio
EC50 [17]: 0.052 nM
B1: bispecific antibody LB141 (bispecific antibody, human IgG4 S228P, kappa)
light: EIVLTQSPATLSLSPGERATLSCRASKGVSTSGYSYLHWYQQKPGQAPRLLIYLASYLESGVPARFSGSGSGTDFTLTISSLEPEDFAVYYCQHSRDLPLTFGGGTKVEIKRTVAAPSVFIFPPSDEQLKSGTASVVCLLNNFYPREAKVQWKVDNALQSGNSQESVTEQDSKDSTYSLSSTLTLSKADYEKHKVYACEVTHQGLSSPVTKSFNRGEC
heavy: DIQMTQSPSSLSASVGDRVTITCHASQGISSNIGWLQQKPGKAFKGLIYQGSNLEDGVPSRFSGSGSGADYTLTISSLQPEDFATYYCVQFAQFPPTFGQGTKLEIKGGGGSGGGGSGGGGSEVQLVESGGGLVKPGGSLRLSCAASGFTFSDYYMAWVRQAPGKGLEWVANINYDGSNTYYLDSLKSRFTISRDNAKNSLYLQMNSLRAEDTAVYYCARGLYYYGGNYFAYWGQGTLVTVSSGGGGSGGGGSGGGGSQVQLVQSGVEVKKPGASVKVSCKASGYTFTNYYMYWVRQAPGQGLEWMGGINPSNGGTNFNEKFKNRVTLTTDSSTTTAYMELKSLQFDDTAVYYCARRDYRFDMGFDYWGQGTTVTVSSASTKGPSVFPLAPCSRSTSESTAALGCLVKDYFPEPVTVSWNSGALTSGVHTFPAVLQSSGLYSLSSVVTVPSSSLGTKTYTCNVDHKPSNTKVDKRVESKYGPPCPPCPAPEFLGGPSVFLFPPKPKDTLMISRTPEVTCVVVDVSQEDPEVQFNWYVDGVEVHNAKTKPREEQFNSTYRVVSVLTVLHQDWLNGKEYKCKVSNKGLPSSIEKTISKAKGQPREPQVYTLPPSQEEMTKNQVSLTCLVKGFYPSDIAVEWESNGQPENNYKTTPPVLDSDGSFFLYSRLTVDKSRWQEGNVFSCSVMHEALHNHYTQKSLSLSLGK
notes: ab6VL-(G4S)3-ab6VH-(G4S)3-PemVH-hIgG4 with PemVL-κ

— patent US20210269521A1 (L AND L BIOPHARMA, published 2021)
